One may read the IC50 as the concentration that gives 50% inhibition.

The target of one experiment is HLA-A*68:02. Description: IEDB peptide-MHC binding, purified MHC/competitive/radioactivity; ≥ and ≤ were set here for values at or beyond the usual limits of such assays.
A further experiment addresses HLA-A*02:02. The description is as above.
The target in another experiment is HLA-A*02:06. The description is as above.
Experiment [1] concerns the target HLA-A*02:01. The description is as above.
Another experiment deals with HLA-A*02:03. The experiment in a line: IEDB peptide-MHC binding, cellular MHC/competitive/fluorescence; ≥ and ≤ were set here for values at or beyond the usual limits of such assays.
Experiment [2] has as its target HLA-A*02:01. Described as above.
Where [3] appears, read: source organism: Vaccinia virus WR.
[4] abbreviates: source organism: Mammarenavirus lassaense.
[5] abbreviates: source organism: Mammarenavirus whitewaterense.
Where [6] appears, read: source organism: Mammarenavirus brazilense.

On to ALYYVHSLL, for which the IC50 with HLA-A*68:02 (setting [3]) was found to be 598 nM; with HLA-A*02:02 (setting [3]), 26 nM; with HLA-A*02:06 (setting [3]), 3260 nM; with HLA-A*02:01 [1] (setting [3]), 229 nM; in the experiment with HLA-A*02:03 (setting [3]), 15 µM.

As to CAVIPFDDIV, the IC50 with HLA-A*68:02 (setting [3]) was 137 nM; with HLA-A*02:02 (setting [3]), 2920 nM; with HLA-A*02:06 (setting [3]), 184 nM; in the experiment with HLA-A*02:01 [1] (setting [3]), 1090 nM; with HLA-A*02:03 (setting [3]), 7.42 µM.

For CNYSKYWYL, the IC50 with HLA-A*68:02 (setting [4]) was found to be 4190 nM; in the experiment with HLA-A*02:02 (setting [4]), 3660 nM; with HLA-A*02:06 (setting [4]) it was 2710 nM; with HLA-A*02:03 (setting [4]), 7.13 µM; with HLA-A*02:01 [2] (setting [4]), 16.3 µM.

For CTMERTNDLT, the IC50 with HLA-A*68:02 (setting [3]) was 8.7 nM; with HLA-A*02:02 (setting [3]), 4050 nM; with HLA-A*02:06 (setting [3]) it was 1010 nM; with HLA-A*02:03 (setting [3]), 16.1 µM; with HLA-A*02:01 [2] (setting [3]) it was 18.6 µM.

Regarding CTNDIYCDEI, the IC50 in the experiment with HLA-A*68:02 (setting [3]) is 192 nM; with HLA-A*02:02 (setting [3]), 2460 nM; in the experiment with HLA-A*02:06 (setting [3]), 4760 nM; with HLA-A*02:03 (setting [3]), 5.72 µM; with HLA-A*02:01 [2] (setting [3]) it was 9.06 µM.

For CVDHPFIYVI, the IC50 with HLA-A*68:02 (setting [3]) worked out at 791 nM; with HLA-A*02:02 (setting [3]) it was 964 nM; with HLA-A*02:06 (setting [3]), 1610 nM; with HLA-A*02:01 [1] (setting [3]) it was 2890 nM; with HLA-A*02:03 (setting [3]), 10.8 µM.

On to DIKYISRDEL, for which the IC50 in the experiment with HLA-A*68:02 (setting [3]) stood at 321 nM; with HLA-A*02:02 (setting [3]), 2550 nM; with HLA-A*02:06 (setting [3]), 2060 nM; with HLA-A*02:01 [1] (setting [3]), 3570 nM; with HLA-A*02:03 (setting [3]), 9.58 µM.

On to DIPTFNSLNT, for which the IC50 in the experiment with HLA-A*68:02 (setting [3]) amounted to 900 nM; in the experiment with HLA-A*02:02 (setting [3]), 2020 nM; with HLA-A*02:06 (setting [3]) it was 45 nM; with HLA-A*02:03 (setting [3]), 16.6 µM; in the experiment with HLA-A*02:01 [2] (setting [3]), 23 µM.

With DISSFYWSL, the IC50 in the experiment with HLA-A*68:02 (setting [3]) was found to be 28 nM; with HLA-A*02:02 (setting [3]) it was 391 nM; with HLA-A*02:06 (setting [3]) it was 3970 nM; with HLA-A*02:03 (setting [3]), 6.87 µM; with HLA-A*02:01 [2] (setting [3]), 8.51 µM.

For EQGDIALAL, the IC50 stood at 800 nM with HLA-A*68:02 (setting [3]); 701 nM in the experiment with HLA-A*02:02 (setting [3]); 4770 nM in the experiment with HLA-A*02:06 (setting [3]); 11.1 µM with HLA-A*02:03 (setting [3]); 13 µM with HLA-A*02:01 [2] (setting [3]).

Take ETDDDGNYPL: the IC50 in the experiment with HLA-A*68:02 (setting [3]) came out at 27 nM; in the experiment with HLA-A*02:02 (setting [3]) it was 3590 nM; in the experiment with HLA-A*02:06 (setting [3]), 1160 nM; in the experiment with HLA-A*02:01 [1] (setting [3]), 2170 nM; with HLA-A*02:03 (setting [3]), 28.2 µM.

Take FLVLIMLII: the IC50 with HLA-A*68:02 (source organism: SARS-CoV1) was 2570 nM; in the experiment with HLA-A*02:02 (source organism: SARS-CoV1) it was 1630 nM; with HLA-A*02:06 (source organism: SARS-CoV1), 1350 nM; with HLA-A*02:01 [1] (source organism: SARS-CoV1), 2300 nM; with HLA-A*02:03 (source organism: SARS-CoV1), 9.73 µM.

Consider FSAVISGSV, for which the IC50 with HLA-A*68:02 (setting [5]) was found to be 2.6 nM; with HLA-A*02:02 (setting [5]) it was 48 nM; with HLA-A*02:06 (setting [5]), 161 nM; with HLA-A*02:01 [1] (setting [5]), 83 nM; in the experiment with HLA-A*02:03 (setting [5]) it was 14.1 µM.

HTYHLENDKI: the IC50 with HLA-A*68:02 (setting [3]) was determined as 284 nM; with HLA-A*02:02 (setting [3]), 1790 nM; with HLA-A*02:06 (setting [3]), 1990 nM; in the experiment with HLA-A*02:03 (setting [3]) it was 13.7 µM; with HLA-A*02:01 [2] (setting [3]) it was 59 µM.

IAGGVCYYLL: the IC50 with HLA-A*68:02 (setting [3]) was determined as 268 nM; in the experiment with HLA-A*02:02 (setting [3]) it was 4580 nM; with HLA-A*02:06 (setting [3]) it was 656 nM; with HLA-A*02:01 [1] (setting [3]), 174 nM; in the experiment with HLA-A*02:03 (setting [3]) it was 14.6 µM.

As to IASGQRCHFI, the IC50 with HLA-A*68:02 (setting [3]) is 4220 nM; with HLA-A*02:02 (setting [3]), 526 nM; with HLA-A*02:06 (setting [3]) it was 256 nM; in the experiment with HLA-A*02:03 (setting [3]) it was 8.32 µM; with HLA-A*02:01 [2] (setting [3]), 18.4 µM.

For the sequence ITVGMLIYSM, the IC50 with HLA-A*68:02 (setting [3]) was 611 nM; with HLA-A*02:02 (setting [3]), 47 nM; with HLA-A*02:06 (setting [3]), 97 nM; with HLA-A*02:01 [1] (setting [3]), 167 nM; in the experiment with HLA-A*02:03 (setting [3]), 6.11 µM.

As to IVNTTYDFLA, the IC50 in the experiment with HLA-A*68:02 (setting [3]) came out at 991 nM; in the experiment with HLA-A*02:02 (setting [3]), 1250 nM; with HLA-A*02:06 (setting [3]), 956 nM; with HLA-A*02:01 [1] (setting [3]), 2390 nM; with HLA-A*02:03 (setting [3]), 8.27 µM.

Regarding IVSRSSRGV, the IC50 was found to be 1020 nM with HLA-A*68:02 (setting [3]); 264 nM with HLA-A*02:02 (setting [3]); 476 nM with HLA-A*02:06 (setting [3]); 1980 nM in the experiment with HLA-A*02:01 [1] (setting [3]); 13.2 µM in the experiment with HLA-A*02:03 (setting [3]).

With KNATWCLEV, the IC50 was 1390 nM with HLA-A*68:02 (setting [6]); 1620 nM with HLA-A*02:02 (setting [6]); 2320 nM with HLA-A*02:06 (setting [6]); 7.02 µM with HLA-A*02:03 (setting [6]); 12.8 µM with HLA-A*02:01 [2] (setting [6]).

As for LTHFNNNENV, the IC50 in the experiment with HLA-A*68:02 (setting [3]) amounted to 11 nM; in the experiment with HLA-A*02:02 (setting [3]), 907 nM; with HLA-A*02:06 (setting [3]) it was 996 nM; with HLA-A*02:03 (setting [3]) it was 7.27 µM; in the experiment with HLA-A*02:01 [2] (setting [3]), 6.59 µM.

On to LTSVDIETA, for which the IC50 with HLA-A*68:02 (setting [3]) came to 1240 nM; in the experiment with HLA-A*02:02 (setting [3]), 4920 nM; in the experiment with HLA-A*02:06 (setting [3]), 311 nM; in the experiment with HLA-A*02:03 (setting [3]), 11.5 µM; with HLA-A*02:01 [2] (setting [3]), 24 µM.
